The results in this text go back to article PMC3401278 (ACS Chemical Biology, 2012).

Read-outs that look alike come from different tables or passages of the source. Where no end group is shown, it is not given here. The star is where a group is joined. FITC = O=C1OC2(c3ccc(O)cc3Oc3cc(O)ccc32)c2ccc(NC(=S)*)cc21; βAla = NCCC(=O)O

The target of assay [1] is T1, E. coli His6-LpxD (Escherichia coli, UniProt P21645). Put plainly: biochemical. The assay is classed as binding.
For a further assay, the target named is E. coli LpxA (Escherichia coli, UniProt P0A722). Put plainly: Fluorescence polarization competition binding assay, LpxA.
A further assay deals with LpxA (Escherichia coli, UniProt P0A722). Put plainly: Continuous fluorescent acyltransferase inhibition assay. The assay is classed as biochemical, E. coli. To be noted: pH 7.5.
The target of assay [2] is T1, E. coli His6-LpxD. Put plainly: Fluorescence polarization direct binding of FITC-labeled peptide to His6-LpxD. To be noted: at up to 180 μM LpxD. Background: In fluorescence polarisation assays a small probe gives low polarisation when free and higher when bound to something large.
Assay [3] concerns the target T2, E. coli His6-LpxD (UDP-3-O-(R-3-hydroxyacyl)glucosamine N-acyltransferase) (E. coli, UniProt P21645 1-341).
T2 sequence (looked up): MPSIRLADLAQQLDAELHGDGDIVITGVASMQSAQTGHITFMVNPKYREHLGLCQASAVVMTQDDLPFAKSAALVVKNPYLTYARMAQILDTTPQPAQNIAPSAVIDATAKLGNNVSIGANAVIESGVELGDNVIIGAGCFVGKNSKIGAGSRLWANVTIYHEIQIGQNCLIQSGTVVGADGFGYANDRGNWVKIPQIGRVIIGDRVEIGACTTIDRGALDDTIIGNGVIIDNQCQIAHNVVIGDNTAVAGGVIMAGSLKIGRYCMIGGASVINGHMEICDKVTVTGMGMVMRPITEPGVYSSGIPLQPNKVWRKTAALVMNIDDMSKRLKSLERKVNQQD
Put plainly: fluorescence polarisation.

Assay [4] deals with T2, E. coli His6-LpxD …. Put plainly: fluorescence polarisation. The source holds these as a separate data set.
Assay [5] addresses T3, E. coli LpxA (UDP-N-acetylglucosamine acyltransferase), native (E. coli, UniProt P0A722 1-262).
T3 sequence (looked up): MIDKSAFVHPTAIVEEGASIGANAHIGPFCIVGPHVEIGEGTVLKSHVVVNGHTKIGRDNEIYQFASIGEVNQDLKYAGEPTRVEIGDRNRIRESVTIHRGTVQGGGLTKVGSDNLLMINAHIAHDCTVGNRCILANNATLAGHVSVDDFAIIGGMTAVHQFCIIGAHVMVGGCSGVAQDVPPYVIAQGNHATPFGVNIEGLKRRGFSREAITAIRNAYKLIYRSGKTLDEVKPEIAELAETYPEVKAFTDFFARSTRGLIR
Put plainly: fluorescence polarisation.

With `CC[C@H](C)[C@H](NC(=O)[C@@H]1CCCN1C(=O)[C@H](CC(=O)O)NC(=O)[C@H](CC(C)C)NC(=O)[C@H](CCSC)NC(=O)[C@H](Cc1c[nH]c2ccccc12)NC(=O)CNC(=O)[C@H](CO)NC(=O)[C@@H](N)CO)C(=O)N[C@@H](C)C(=O)NCC(=O)N[C@@H](CCCCN)C(=O)N[C@@H](Cc1c[nH]c2ccccc12)C(=O)N[C@@H](CO)C(=O)N[C@@H](CCCNC(=N)N)C(N)=O` [P920], on E. coli His6-LpxD [1], the Kd (usually the free concentration of one partner at which half of the binding sites on the other are occupied at equilibrium, for simple one-to-one binding) was more than 300 µM. SENNFMLPLLPL-NH2 [RJPXD34] yielded a Kd on E. coli LpxA of more than 300 µM. Also, the “LpxA IC50” value at LpxA is “did not inhibit”.

With β-alanyl-fluorescein, the “ΔmP with LpxD, fluorophore alone” value at E. coli His6-LpxD [2] is reported as ~ 26 mP.

SENNFMLPLLPL-NH2 [RJPXD34 (SENNFMLPLLPL-NH2)] displayed an equilibrium dissociation constant (Kd) in assay [3] of 31 ± 1.5 µM.

B1: FITC-RJPXD33 (FITC-(βA)TNLYMLPKWDIP-NH2) (peptide)
peptide: {FITC-βAla}-TNLYMLPKWDIP-NH2
SMILES: CC[C@H](C)[C@H](NC(=O)[C@H](CC(=O)O)NC(=O)[C@H](Cc1c[nH]c2ccccc12)NC(=O)[C@H](CCCCN)NC(=O)[C@@H]1CCCN1C(=O)[C@H](CC(C)C)NC(=O)[C@H](CCSC)NC(=O)[C@H](Cc1ccc(O)cc1)NC(=O)[C@H](CC(C)C)NC(=O)[C@H](CC(N)=O)NC(=O)[C@@H](NC(=O)CCNC(=S)Nc1ccc2c(c1)C(=O)OC21c2ccc(O)cc2Oc2cc(O)ccc21)[C@@H](C)O)C(=O)N1CCC[C@H]1C(N)=O
For the molecule B1, the Kd in assay [4] was 0.6 ± 0.04 µM.

With QHFMVPDINDMQ-NH2 [RJPXD31 (QHFMVPDINDMQ-NH2)], the Kd in assay [3] came out at 41 ± 3 µM; in assay [5], 119 ± 9 µM. The matching figures for TNLYMLPKWDIP-NH2 [RJPXD33 (TNLYMLPKWDIP-NH2)]: 6.5 ± 0.2 µM and 22 ± 2.1 µM.
